Literature values as cited in publication PMC7488126.
Blank lines part the entries; values can stand above or below the substance they belong to.

Experiments:
CD48 (Homo sapiens) = CD48 (Homo sapiens) (UniProt P09326)
CD155 (Homo sapiens) = CD155 (Homo sapiens) (UniProt P15151)
CD112 (Homo sapiens) = CD112 (Homo sapiens) (UniProt Q92692)
B7H6 (Homo sapiens) = B7H6 (Homo sapiens) (UniProt Q68D85)
UniProt Q68D85, sequence (Q68D85 25-262): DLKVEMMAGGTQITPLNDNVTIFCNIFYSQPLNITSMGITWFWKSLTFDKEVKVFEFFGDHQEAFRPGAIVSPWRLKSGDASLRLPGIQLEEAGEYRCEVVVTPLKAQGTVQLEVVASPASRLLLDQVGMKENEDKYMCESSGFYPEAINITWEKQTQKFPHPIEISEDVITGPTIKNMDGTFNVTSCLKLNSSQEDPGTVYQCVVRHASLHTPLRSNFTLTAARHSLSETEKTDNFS

UniProt P09326, sequence (P09326 27-220): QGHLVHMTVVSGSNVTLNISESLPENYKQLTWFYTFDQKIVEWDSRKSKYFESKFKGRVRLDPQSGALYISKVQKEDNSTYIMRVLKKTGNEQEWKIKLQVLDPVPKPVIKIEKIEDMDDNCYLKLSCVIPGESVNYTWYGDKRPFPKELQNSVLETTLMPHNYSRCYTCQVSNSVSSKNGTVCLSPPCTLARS
UniProt Q92692, sequence (Q92692 32-360): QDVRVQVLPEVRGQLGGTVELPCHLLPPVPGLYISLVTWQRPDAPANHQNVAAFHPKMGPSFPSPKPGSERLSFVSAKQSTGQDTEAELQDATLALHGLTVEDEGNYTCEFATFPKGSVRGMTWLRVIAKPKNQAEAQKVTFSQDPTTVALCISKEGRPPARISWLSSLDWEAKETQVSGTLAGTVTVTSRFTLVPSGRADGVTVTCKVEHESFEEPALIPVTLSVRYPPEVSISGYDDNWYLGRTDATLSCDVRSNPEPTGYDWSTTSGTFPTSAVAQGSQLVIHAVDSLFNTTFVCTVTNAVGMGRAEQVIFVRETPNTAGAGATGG

Kd (CD48 (Homo sapiens)): 8000 nM
Substance: 2B4 ECD (from UniProt Q9BZW8)

Kd (CD155 (Homo sapiens)): 230 nM
Kd (CD112 (Homo sapiens)): 310 nM
Substance: DNAM-1 (from UniProt Q15762)

Kd (B7H6 (Homo sapiens)): 1000 nM
Substance: NKp30 Ig variable domain (from UniProt O14931)
